Article PMC9482650, “Quantitative fragmentomics allow affinity mapping of interactomes” (Nature Communications, 2022)
Values belong to the binder of their own block, whether it stands above or below them.

What was measured:
Assay in all cases: holdup assay
Set-up in all cases: key: below the threshold = too weak to quantify, mostly under pKd 3.1 to 4
[1] = biological target: ARHGEF12, Q9NZN5-2; details: plain residues with an end cap or a label only (N-terminal biotin on a linker: ahx)
[2] = biological target: DLG2_2, Q15700; details: plain residues with an end cap or a label only (N-terminal biotin on a linker: ahx)
[3] = biological target: T1, DLG3_3, Q92796; details: plain residues with an end cap or a label only (N-terminal biotin on a linker: ahx)
T1 sequence (Q92796 374-475, limits assumed, looked up): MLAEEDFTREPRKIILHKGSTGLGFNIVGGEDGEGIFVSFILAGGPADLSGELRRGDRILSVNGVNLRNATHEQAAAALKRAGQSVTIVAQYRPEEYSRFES

[4] = biological target: MAGI2_4, Q86UL8
Sequence of MAGI2_4, Q86UL8 (Q86UL8 772-865): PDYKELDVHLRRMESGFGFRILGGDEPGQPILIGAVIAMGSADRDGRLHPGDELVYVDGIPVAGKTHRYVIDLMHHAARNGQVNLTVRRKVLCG

[5] = biological target: PARD3_3, Q8TEW0; details: plain residues with an end cap or a label only (N-terminal biotin on a linker: ahx)
Sequence of PARD3_3, Q8TEW0 (Q8TEW0 582-685): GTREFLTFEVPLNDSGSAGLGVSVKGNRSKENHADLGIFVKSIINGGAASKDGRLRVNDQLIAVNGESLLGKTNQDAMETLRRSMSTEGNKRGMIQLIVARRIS

[6] = biological target: T2, SHANK1, Q9Y566; details: plain residues with an end cap or a label only (N-terminal biotin on a linker: ahx)
T2 sequence (Q9Y566 658-767, limits assumed, looked up): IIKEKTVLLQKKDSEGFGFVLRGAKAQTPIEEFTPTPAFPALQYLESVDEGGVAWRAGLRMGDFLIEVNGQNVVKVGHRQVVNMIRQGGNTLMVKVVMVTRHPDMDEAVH

[7] = biological target: T3, SNTA1, Q13424
T3 sequence (Q13424 82-180, limits assumed, looked up): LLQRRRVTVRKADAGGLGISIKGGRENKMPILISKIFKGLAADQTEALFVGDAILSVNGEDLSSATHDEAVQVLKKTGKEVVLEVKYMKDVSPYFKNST

[8] = biological target: T4, SNTB1, Q13884; details: plain residues with an end cap or a label only (N-terminal biotin on a linker: ahx)
T4 sequence (Q13884 107-205, limits assumed, looked up): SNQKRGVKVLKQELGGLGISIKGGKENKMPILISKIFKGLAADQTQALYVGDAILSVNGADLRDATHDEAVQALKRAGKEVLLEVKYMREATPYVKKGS

[9] = biological target: SNX27, Q96L92; details: plain residues with an end cap or a label only (N-terminal biotin on a linker: ahx)
[10] = biological target: T5, SYNJ2BP, P57105; details: plain residues with an end cap or a label only (N-terminal biotin on a linker: ahx)
T5 sequence (P57105 8-110, limits assumed, looked up): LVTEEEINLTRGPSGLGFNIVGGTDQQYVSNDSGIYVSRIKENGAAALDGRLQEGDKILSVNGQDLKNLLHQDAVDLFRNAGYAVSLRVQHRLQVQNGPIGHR

[11] = biological target: T6, MPDZ_10, O75970; details: plain residues with an end cap or a label only (N-terminal biotin on a linker: ahx)
T6 sequence (O75970 1624-1722, limits assumed, looked up): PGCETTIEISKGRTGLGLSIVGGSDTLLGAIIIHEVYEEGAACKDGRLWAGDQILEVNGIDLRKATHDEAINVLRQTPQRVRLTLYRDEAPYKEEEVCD

[12] = biological target: T7, PDZD7_3, Q9H5P4; details: plain residues with an end cap or a label only (N-terminal biotin on a linker: ahx)
T7 sequence (Q9H5P4 857-944, limits assumed, looked up): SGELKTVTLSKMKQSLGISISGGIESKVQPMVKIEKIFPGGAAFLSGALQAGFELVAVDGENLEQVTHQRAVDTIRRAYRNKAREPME

[13] = biological target: T8, ARHGAP21, Q5T5U3; details: plain residues with an end cap or a label only (N-terminal biotin on a linker: ado-ado)
T8 sequence (Q5T5U3 45-169, limits assumed, looked up): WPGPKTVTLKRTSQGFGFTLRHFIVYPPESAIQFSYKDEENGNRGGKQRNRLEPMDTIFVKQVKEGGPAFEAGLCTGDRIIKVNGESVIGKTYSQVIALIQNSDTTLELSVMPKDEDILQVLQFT

[14] = biological target: HTRA2, O43464; details: plain residues with an end cap or a label only (N-terminal biotin on a linker: ado-ado)
Sequence of HTRA2, O43464 (O43464 355-458): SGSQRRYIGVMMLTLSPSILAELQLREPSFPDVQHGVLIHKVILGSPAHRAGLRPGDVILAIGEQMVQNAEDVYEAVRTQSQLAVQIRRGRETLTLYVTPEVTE

[15] = biological target: T9, HTRA3, P83110; details: plain residues with an end cap or a label only (N-terminal biotin on a linker: ado-ado)
T9 sequence (P83110 354-453, limits assumed, looked up): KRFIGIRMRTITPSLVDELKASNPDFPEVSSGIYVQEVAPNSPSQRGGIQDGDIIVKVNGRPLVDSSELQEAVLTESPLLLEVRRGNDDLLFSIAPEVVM

[16] = biological target: IL16_4, Q14005; details: plain residues with an end cap or a label only (N-terminal biotin on a linker: ado-ado)
Sequence of IL16_4, Q14005 (Q14005 1229-1329): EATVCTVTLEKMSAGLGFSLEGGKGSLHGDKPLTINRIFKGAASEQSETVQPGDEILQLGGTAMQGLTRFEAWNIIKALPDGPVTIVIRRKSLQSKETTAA

[17] = biological target: Inadl_3, Q8NI35; details: plain residues with an end cap or a label only (N-terminal biotin on a linker: ado-ado)
Sequence of Inadl_3, Q8NI35 (Q8NI35 359-469): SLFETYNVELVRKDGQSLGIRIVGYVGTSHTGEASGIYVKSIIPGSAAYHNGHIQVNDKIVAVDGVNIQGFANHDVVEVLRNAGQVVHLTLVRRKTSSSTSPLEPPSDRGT

[18] = biological target: Inadl_9, Q8NI35; details: plain residues with an end cap or a label only (N-terminal biotin on a linker: ado-ado)
Sequence of Inadl_9, Q8NI35 (Q8NI35 1530-1615): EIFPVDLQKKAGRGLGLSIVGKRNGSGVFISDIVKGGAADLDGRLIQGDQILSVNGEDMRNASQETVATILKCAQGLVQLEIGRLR

[19] = biological target: LNX1_2, Q8TBB1; details: plain residues with an end cap or a label only (N-terminal biotin on a linker: ado-ado)
Sequence of LNX1_2, Q8TBB1 (Q8TBB1 371-470): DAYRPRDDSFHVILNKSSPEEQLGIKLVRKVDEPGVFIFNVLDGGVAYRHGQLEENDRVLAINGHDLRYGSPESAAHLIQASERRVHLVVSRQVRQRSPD

[20] = biological target: T10, PARD3B_1, Q8TEW8; details: plain residues with an end cap or a label only (N-terminal biotin on a linker: ado-ado)
T10 sequence (Q8TEW8 196-299, limits assumed, looked up): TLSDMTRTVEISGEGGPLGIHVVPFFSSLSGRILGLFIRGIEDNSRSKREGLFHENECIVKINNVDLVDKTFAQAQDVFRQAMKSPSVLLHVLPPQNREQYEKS

[21] = biological target: PTPN3, P26045; details: plain residues with an end cap or a label only (N-terminal biotin on a linker: ado-ado)
Sequence of PTPN3, P26045 (P26045 505-587): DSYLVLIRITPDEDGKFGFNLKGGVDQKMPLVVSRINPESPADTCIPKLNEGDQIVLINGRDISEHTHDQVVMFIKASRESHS

[22] = biological target: T11, SNTG2, Q9NY99; details: plain residues with an end cap or a label only (N-terminal biotin on a linker: ado-ado)
T11 sequence (Q9NY99 68-166, limits assumed, looked up): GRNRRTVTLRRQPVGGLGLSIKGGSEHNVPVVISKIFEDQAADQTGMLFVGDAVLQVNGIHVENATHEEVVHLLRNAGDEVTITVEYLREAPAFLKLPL

[23] = biological target: TJP1_2, Q07157; details: plain residues with an end cap or a label only (N-terminal biotin on a linker: ado-ado)
Sequence of TJP1_2, Q07157 (Q07157 181-274): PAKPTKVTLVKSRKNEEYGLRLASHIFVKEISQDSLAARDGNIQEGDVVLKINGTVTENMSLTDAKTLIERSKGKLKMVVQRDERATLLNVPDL

[24] = biological target: DLG2_3, Q15700; details: plain residues with an end cap or a label only (N-terminal biotin on a linker: ado-ado)
[25] = biological target: HTRA1, Q92743; details: plain residues with an end cap or a label only (N-terminal biotin on a linker: ado-ado)
Sequence of HTRA1, Q92743 (Q92743 360-477): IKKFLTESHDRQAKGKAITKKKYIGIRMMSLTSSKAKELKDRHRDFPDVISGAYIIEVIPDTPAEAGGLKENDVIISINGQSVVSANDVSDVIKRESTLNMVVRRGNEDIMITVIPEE

[26] = biological target: LAP2, Q96RT1; details: plain residues with an end cap or a label only (N-terminal biotin on a linker: ado-ado)
Sequence of LAP2, Q96RT1 (Q96RT1 other isoform, or with tags, fused parts or gaps): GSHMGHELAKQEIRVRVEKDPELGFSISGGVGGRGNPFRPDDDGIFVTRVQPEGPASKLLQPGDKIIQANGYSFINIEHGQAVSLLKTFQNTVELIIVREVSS

[27] = biological target: T12, LIN7B, Q9HAP6; details: plain residues with an end cap or a label only (N-terminal biotin on a linker: ado-ado)
T12 sequence (Q9HAP6 88-185, limits assumed, looked up): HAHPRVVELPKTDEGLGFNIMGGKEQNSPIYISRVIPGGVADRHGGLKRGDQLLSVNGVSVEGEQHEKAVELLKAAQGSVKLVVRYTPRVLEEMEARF

[28] = biological target: T13, LIN7C, Q9NUP9; details: plain residues with an end cap or a label only (N-terminal biotin on a linker: ado-ado)
T13 sequence (Q9NUP9 88-185, limits assumed, looked up): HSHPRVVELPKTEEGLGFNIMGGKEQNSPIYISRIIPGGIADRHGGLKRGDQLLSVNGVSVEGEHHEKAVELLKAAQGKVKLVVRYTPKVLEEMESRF

[29] = biological target: T14, MPDZ_12, O75970; details: plain residues with an end cap or a label only (N-terminal biotin on a linker: ado-ado)
T14 sequence (O75970 1857-1958, limits assumed, looked up): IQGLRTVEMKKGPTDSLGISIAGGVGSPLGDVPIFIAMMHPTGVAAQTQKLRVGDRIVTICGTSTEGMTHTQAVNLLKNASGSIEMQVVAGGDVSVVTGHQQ

[30] = biological target: PDLIM1, O00151; details: plain residues with an end cap or a label only (N-terminal biotin on a linker: ado-ado)
Sequence of PDLIM1, O00151 (O00151 1-87): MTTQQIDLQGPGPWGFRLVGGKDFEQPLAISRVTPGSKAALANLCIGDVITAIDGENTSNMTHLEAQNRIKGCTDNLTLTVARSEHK

[31] = biological target: T15, PDZRN3_1, Q9UPQ7; details: plain residues with an end cap or a label only (N-terminal biotin on a linker: ado-ado)
T15 sequence (Q9UPQ7 244-349, limits assumed, looked up): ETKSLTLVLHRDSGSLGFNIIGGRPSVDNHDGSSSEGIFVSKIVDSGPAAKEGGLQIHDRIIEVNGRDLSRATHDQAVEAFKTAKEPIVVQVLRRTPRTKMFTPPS

[32] = biological target: SCRIB_2, Q14160; details: plain residues with an end cap or a label only (N-terminal biotin on a linker: ado-ado)
Sequence of SCRIB_2, Q14160 (Q14160 857-960): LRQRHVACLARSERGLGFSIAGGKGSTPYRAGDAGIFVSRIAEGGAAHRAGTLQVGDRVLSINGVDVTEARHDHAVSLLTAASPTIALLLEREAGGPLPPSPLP

[33] = biological target: T16, DFNB31_1, Q9P202; details: plain residues with an end cap or a label only (N-terminal biotin on a linker: ado-ado)
T16 sequence (Q9P202 135-233, limits assumed, looked up): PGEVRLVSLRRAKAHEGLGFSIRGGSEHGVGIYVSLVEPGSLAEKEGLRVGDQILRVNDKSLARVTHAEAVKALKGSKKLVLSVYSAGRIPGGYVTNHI

[34] = biological target: DLG4_1, P78352; details: plain residues with an end cap or a label only (N-terminal biotin on a linker: ado-ado)
Sequence of DLG4_1, P78352 (P78352 62-152): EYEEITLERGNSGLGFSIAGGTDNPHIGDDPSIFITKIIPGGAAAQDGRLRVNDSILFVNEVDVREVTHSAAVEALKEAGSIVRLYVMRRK

[35] = biological target: Inadl_8, Q8NI35; details: plain residues with an end cap or a label only (N-terminal biotin on a linker: ado-ado)
Sequence of Inadl_8, Q8NI35 (Q8NI35 1425-1530): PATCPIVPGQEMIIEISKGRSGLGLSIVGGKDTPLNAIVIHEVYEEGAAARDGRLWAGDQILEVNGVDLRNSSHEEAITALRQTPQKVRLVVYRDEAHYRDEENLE

[36] = biological target: LNX1_1, Q8TBB1; details: plain residues with an end cap or a label only (N-terminal biotin on a linker: ado-ado)
Sequence of LNX1_1, Q8TBB1 (Q8TBB1 261-371): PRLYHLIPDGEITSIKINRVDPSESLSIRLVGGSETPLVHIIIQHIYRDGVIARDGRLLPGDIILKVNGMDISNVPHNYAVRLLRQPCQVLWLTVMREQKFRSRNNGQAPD

[37] = biological target: MAGI1_2, Q96QZ7; details: plain residues with an end cap or a label only (N-terminal biotin on a linker: ado-ado)
Sequence of MAGI1_2, Q96QZ7 (Q96QZ7 456-580): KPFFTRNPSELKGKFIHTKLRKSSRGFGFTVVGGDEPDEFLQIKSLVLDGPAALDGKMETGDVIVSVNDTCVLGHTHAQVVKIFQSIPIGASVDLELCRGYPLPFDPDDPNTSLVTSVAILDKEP

[38] = biological target: MAGI2_2, Q86UL8; details: plain residues with an end cap or a label only (N-terminal biotin on a linker: ado-ado)
Sequence of MAGI2_2, Q86UL8 (Q86UL8 410-522): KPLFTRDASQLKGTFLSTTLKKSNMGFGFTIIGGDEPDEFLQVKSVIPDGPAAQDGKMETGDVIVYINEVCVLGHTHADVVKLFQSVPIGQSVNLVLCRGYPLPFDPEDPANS

[39] = biological target: MAGI2_5, Q86UL8; details: plain residues with an end cap or a label only (N-terminal biotin on a linker: ado-ado)
Sequence of MAGI2_5, Q86UL8 (Q86UL8 915-1017): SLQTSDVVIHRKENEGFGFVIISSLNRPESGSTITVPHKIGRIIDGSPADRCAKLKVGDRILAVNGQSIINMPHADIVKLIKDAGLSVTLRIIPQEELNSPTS

[40] = biological target: MAGI3_2, Q5TCQ9; details: plain residues with an end cap or a label only (N-terminal biotin on a linker: ado-ado)
Sequence of MAGI3_2, Q5TCQ9 (Q5TCQ9 398-503): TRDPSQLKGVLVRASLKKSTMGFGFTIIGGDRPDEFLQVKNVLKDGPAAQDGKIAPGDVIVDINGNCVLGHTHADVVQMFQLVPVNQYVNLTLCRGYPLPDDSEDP

[41] = biological target: T17, RHPN1, Q8TCX5; details: plain residues with an end cap or a label only (N-terminal biotin on a linker: ado-ado)
T17 sequence (Q8TCX5 508-602, limits assumed, looked up): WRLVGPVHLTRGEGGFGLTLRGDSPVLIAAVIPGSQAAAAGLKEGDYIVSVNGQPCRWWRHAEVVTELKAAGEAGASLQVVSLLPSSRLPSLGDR

[42] = biological target: SCRIB_1, Q14160; details: plain residues with an end cap or a label only (N-terminal biotin on a linker: ado-ado)
Sequence of SCRIB_1, Q14160 (Q14160 718-814): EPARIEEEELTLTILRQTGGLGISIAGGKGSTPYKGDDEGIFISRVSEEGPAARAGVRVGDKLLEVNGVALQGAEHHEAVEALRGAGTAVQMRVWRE

[43] = biological target: TJP2_1, Q9UDY2; details: plain residues with an end cap or a label only (N-terminal biotin on a linker: ado-ado)
Sequence of TJP2_1, Q9UDY2 (Q9UDY2 24-128): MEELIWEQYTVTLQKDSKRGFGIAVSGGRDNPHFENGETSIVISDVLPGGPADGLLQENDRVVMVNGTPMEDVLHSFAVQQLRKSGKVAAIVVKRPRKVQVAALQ

[44] = plain residues with an end cap or a label only (N-terminal biotin on a linker: ahx)
[45] = plain residues with an end cap or a label only (N-terminal biotin on a linker: ado-ado)

Sequence of ARHGEF12, Q9NZN5-2 (Q9NZN5 other isoform, or with tags, fused parts or gaps): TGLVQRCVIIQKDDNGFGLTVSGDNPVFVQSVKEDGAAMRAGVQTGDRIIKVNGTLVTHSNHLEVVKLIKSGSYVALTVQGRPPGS

B2: PDLIM4, P50479 (peptide)
chain: PSASCAVTAA
pKd [11]: 3.76
pKd [12]: 3.48

B3: PDLIM4_iso2, P50479 (peptide)
chain: VYPNAKVELV
pKd [13]: 3.8
pKd [14]: 3.69
pKd [15]: 3.62
pKd [16]: 3.83
pKd [17]: 3.54
pKd [18]: 3.57
pKd [19]: 3.54
pKd [4, 45]: 3.56
pKd [20]: 3.6
pKd [21]: 3.87
pKd [22]: 3.48
pKd [23]: 3.52

Other lines, results leading:

pKd [1]: 3.71
pKd [2]: 3.71
pKd [3]: 3.57
pKd [4, 44]: 3.83
pKd [5]: 3.56
pKd [6]: 3.72
pKd [7, 44]: 3.68
pKd [8]: 3.55
pKd [9]: 3.61
pKd [10]: 3.72
B1: GRIN1, Q05586 (peptide)
chain: LSDPSVSTVV

pKd [24]: 3.66
pKd [25]: 3.62
pKd [26]: 3.53
pKd [27]: 3.83
pKd [28]: 3.8
pKd [29]: 3.55
pKd [30]: 3.48
pKd [31]: 3.7
pKd [32]: 3.56
B4: ATP2A2, P16615 (peptide)
chain: YLEPVLSSEL

pKd [33]: 3.73
pKd [34]: 3.51
pKd [25]: 3.73
pKd [35]: 3.52
pKd [36]: 3.72
pKd [37]: 3.8
pKd [38]: 3.87
pKd [39]: 3.69
pKd [40]: 3.69
pKd [31]: 3.77
pKd [41]: 3.82
pKd [42]: 3.82
pKd [7, 45]: 3.71
pKd [43]: 3.54
B5: SLC34A1, Q06495 (peptide)
chain: LPAHHNATRL
